# Measurements published in patent US6180103A, “Peptide p277 analogs, and pharmaceutical compositions comprising them for treatment or diagnosis of diabetes” (Yeda Research and Development Co., Ltd., priority 1994, dated 2001).
# B1: hsp60: whole recombinant hsp60; human 60 kDa heat shock protein (protein, UniProt P10809 27-573, looked up)
# 60 kDa heat shock protein, …: AKDVKFGADARALMLQGVDLLADAVAVTMGPKGRTVIIEQSWGSPKVTKDGVTVAKSIDLKDKYKNIGAKLVQDVANNTNEEAGDGTTTATVLARSIAKEGFEKISKGANPVEIRRGVMLAVDAVIAELKKQSKPVTTPEEIAQVATISANGDKEIGNIISDAMKKVGRKGVITVKDGKTLNDELEIIEGMKFDRGYISPYFINTSKGQKCEFQDAYVLLSEKKISSIQSIVPALEIANAHRKPLVIIAEDVDGEALSTLVLNRLKVGLQVVAVKAPGFGDNRKNQLKDMAIATGGAVFGEEGLTLNLEDVQPHDLGKVGEVIVTKDDAMLLKGKGDKAQIEKRIQEIIEQLDVTTSEYEKEKLNERLAKLSDGVAVLKVGGTSDVEVNEKKDRVTDALNATRAAVEEGIVLGGGCALLRCIPALDSLTPANEDQKIGIEIIKRTLKIPAMTIAKNAGVEGSLIVEKIMQSSSEVGYDAMAGDFVNMVEKGIIDPTKVVRTALLDAAGVASLLTTAEVVVTEIPKEEKDPGMGAMGGMGGGMGGGMF
# Test system: T cells of IDDM patients and healthy blood-donors
# Experiment: Proliferative T cell response of IDDM patients and healthy blood donors
# Type: cell-based, human
# Details: for Incidence of T-cell responses: positive = SI of 3 or greater
molecule,measurement,setting,value
B1,Incidence of T-cell responses,Healthy blood donors (n=14),21%
same,T-cell responses (stimulation index),"IDDM patient 1. patient eight, 3.5 months since diagnosis",+ (SI values of 3 or greater were considered to be positive)
same,T-cell responses (stimulation index),"IDDM patient 3. H, 6 months since diagnosis",+ (SI values of 3 or greater were considered to be positive)
same,T-cell responses (stimulation index),"IDDM patient 4. patient seven, 3 weeks since diagnosis",+ (SI values of 3 or greater were considered to be positive)
same,T-cell responses (stimulation index),"IDDM patient 4. patient seven, 5 weeks since diagnosis",+ (SI values of 3 or greater were considered to be positive)
same,T-cell responses (stimulation index),"IDDM patient 5. SD, 6 weeks since diagnosis",+ (SI values of 3 or greater were considered to be positive)
same,T-cell responses (stimulation index),"IDDM patient 6. P, 4 weeks since diagnosis",- (SI values of 3 or greater were considered to be positive)
same,T-cell responses (stimulation index),"IDDM patient 7. G, 5 weeks since diagnosis",+ (SI values of 3 or greater were considered to be positive)
same,T-cell responses (stimulation index),"IDDM patient 7. G, 7 weeks since diagnosis",+ (SI values of 3 or greater were considered to be positive)
same,T-cell responses (stimulation index),"IDDM patient 9. patient two, 2 weeks since diagnosis",+ (SI values of 3 or greater were considered to be positive)
same,T-cell responses (stimulation index),"IDDM patient 10. T, 4 weeks since diagnosis",+ (SI values of 3 or greater were considered to be positive)
same,T-cell responses (stimulation index),"IDDM patient 12. patient nine, 6 weeks since diagnosis",- (SI values of 3 or greater were considered to be positive)
same,T-cell responses (stimulation index),"IDDM patient 15. patient five, 3 weeks since diagnosis",- (SI values of 3 or greater were considered to be positive)
same,T-cell responses (stimulation index),"IDDM patient 16. patient one, 2 months since diagnosis",+ (SI values of 3 or greater were considered to be positive)
same,T-cell responses (stimulation index),"IDDM patient 17. patient six, 4 weeks since diagnosis",- (SI values of 3 or greater were considered to be positive)
same,T-cell responses (stimulation index),"IDDM patient 18. patient four, 4 weeks since diagnosis",+ (SI values of 3 or greater were considered to be positive)
same,T-cell responses (stimulation index),"IDDM patient 19. A, 11.5 years since diagnosis",+ (SI values of 3 or greater were considered to be positive)
same,T-cell responses (stimulation index),"IDDM patient 20. N, 7.5 years since diagnosis",+ (SI values of 3 or greater were considered to be positive)
same,T-cell responses (stimulation index),"IDDM patient 21. A, 5.7 years since diagnosis",+ (SI values of 3 or greater were considered to be positive)
same,Incidence of T-cell responses,IDDM patients (n=21),86%
same,T-cell responses (stimulation index),healthy blood donor 1,- (SI values of 3 or greater were considered to be positive)
same,T-cell responses (stimulation index),healthy blood donor 2,- (SI values of 3 or greater were considered to be positive)
same,T-cell responses (stimulation index),healthy blood donor 4,- (SI values of 3 or greater were considered to be positive)
same,T-cell responses (stimulation index),healthy blood donor 5,+ (SI values of 3 or greater were considered to be positive)
same,T-cell responses (stimulation index),healthy blood donor 6,- (SI values of 3 or greater were considered to be positive)
same,T-cell responses (stimulation index),healthy blood donor 7,- (SI values of 3 or greater were considered to be positive)
same,T-cell responses (stimulation index),healthy blood donor 8,- (SI values of 3 or greater were considered to be positive)
same,T-cell responses (stimulation index),healthy blood donor 9,- (SI values of 3 or greater were considered to be positive)
same,T-cell responses (stimulation index),healthy blood donor 10,- (SI values of 3 or greater were considered to be positive)
same,T-cell responses (stimulation index),healthy blood donor 11,+ (SI values of 3 or greater were considered to be positive)
same,T-cell responses (stimulation index),healthy blood donor 12,- (SI values of 3 or greater were considered to be positive)
same,T-cell responses (stimulation index),healthy blood donor 13,+ (SI values of 3 or greater were considered to be positive)
same,T-cell responses (stimulation index),healthy blood donor 14,- (SI values of 3 or greater were considered to be positive)
